Patent publication US20210388087A1 (Chugai, published 2021)

Target: T1, CD3 epsilon homodimer protein (UniProt P07766 23-126)
T1 construct: also called CD3 (CD3 epsilon)
Test: SPR, antibody over immobilised CD3e homodimer;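 further: SPR at 25 °C with CD3 epsilon homodimer amine-coupled to a CM4 sensor chip and antibody flowed over as analyte in HBS-EP+ running buffer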
Procedure: An appropriate amount of CD3 epsilon homodimer protein was immobilized onto Sensor chip CM4 (GE Healthcare Japan Corp.) by the amine coupling method. Then, the antibody having an appropriate concentration was injected thereto as an analyte and allowed to interact with the CD3 epsilon homodimer protein on the sensor chip. Then, the sensor chip was regenerated by the injection of 10 mmol/L glycine-HCl (pH 1.5). The assay was conducted at 25 degrees C., and HBS-EP+(GE Healthcare Japan Corp.) was used as a running buffer. […] Each parameter was calculated using Biacore T200 Evaluation Software (GE Healthcare Japan Corp.).

T1 sequence (P07766 23-126): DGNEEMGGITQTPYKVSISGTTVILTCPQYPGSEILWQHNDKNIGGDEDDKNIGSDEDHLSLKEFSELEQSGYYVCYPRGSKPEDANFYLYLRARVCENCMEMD

Row | Binder | KD ratio to GLS3000
1 | CE115HA000/GLS3000 V27cS (antibody, IgG1, name in Kabat numbering, V domains shown, one-arm IgG1) VH: QVQLVESGGGVVQPGRSLRLSCAASGFTFSNAWMHWVRQAPGKGLEWVAQIKAKSNNYATYYAESVKGRFTISRDDSKNSLYLQMNSLKTEDTAVYYCRYVHYGAYYGVDAWGQGTTVTVSS VL: DIVMTQSPLSLPVTPGEPASISCRSSQSLSHSNRNTYLHWYQQKPGQAPRLLIYKVSNRFSGVPDRFSGSGSGTDFTLKISRVEAEDVGVYYCGQGTQVPYTFGQGTKLEIK | 3.04
2 | CE115HA000/GLS3000 V51I (antibody, IgG1, name in Kabat numbering, V domains shown, one-arm IgG1) VH: QVQLVESGGGVVQPGRSLRLSCAASGFTFSNAWMHWVRQAPGKGLEWVAQIKAKSNNYATYYAESVKGRFTISRDDSKNSLYLQMNSLKTEDTAVYYCRYVHYGAYYGVDAWGQGTTVTVSS VL: DIVMTQSPLSLPVTPGEPASISCRSSQSLVHSNRNTYLHWYQQKPGQAPRLLIYKISNRFSGVPDRFSGSGSGTDFTLKISRVEAEDVGVYYCGQGTQVPYTFGQGTKLEIK | 0.69
3 | CE115HA000/GLS3000 V94P (antibody, IgG1, name in Kabat numbering, V domains shown, one-arm IgG1) VH: QVQLVESGGGVVQPGRSLRLSCAASGFTFSNAWMHWVRQAPGKGLEWVAQIKAKSNNYATYYAESVKGRFTISRDDSKNSLYLQMNSLKTEDTAVYYCRYVHYGAYYGVDAWGQGTTVTVSS VL: DIVMTQSPLSLPVTPGEPASISCRSSQSLVHSNRNTYLHWYQQKPGQAPRLLIYKVSNRFSGVPDRFSGSGSGTDFTLKISRVEAEDVGVYYCGQGTQPPYTFGQGTKLEIK | 1.1
4 | CE115HA000/GLS3000 V94D (antibody, IgG1, name in Kabat numbering, V domains shown, one-arm IgG1) VH: QVQLVESGGGVVQPGRSLRLSCAASGFTFSNAWMHWVRQAPGKGLEWVAQIKAKSNNYATYYAESVKGRFTISRDDSKNSLYLQMNSLKTEDTAVYYCRYVHYGAYYGVDAWGQGTTVTVSS VL: DIVMTQSPLSLPVTPGEPASISCRSSQSLVHSNRNTYLHWYQQKPGQAPRLLIYKVSNRFSGVPDRFSGSGSGTDFTLKISRVEAEDVGVYYCGQGTQDPYTFGQGTKLEIK | 1.05
5 | CE115HA000/GLS3000 V94M (antibody, IgG1, name in Kabat numbering, V domains shown, one-arm IgG1) VH: QVQLVESGGGVVQPGRSLRLSCAASGFTFSNAWMHWVRQAPGKGLEWVAQIKAKSNNYATYYAESVKGRFTISRDDSKNSLYLQMNSLKTEDTAVYYCRYVHYGAYYGVDAWGQGTTVTVSS VL: DIVMTQSPLSLPVTPGEPASISCRSSQSLVHSNRNTYLHWYQQKPGQAPRLLIYKVSNRFSGVPDRFSGSGSGTDFTLKISRVEAEDVGVYYCGQGTQMPYTFGQGTKLEIK | 2.74
6 | CE115HA000/GLS3000 V51P (antibody, IgG1, name in Kabat numbering, V domains shown, one-arm IgG1) VH: QVQLVESGGGVVQPGRSLRLSCAASGFTFSNAWMHWVRQAPGKGLEWVAQIKAKSNNYATYYAESVKGRFTISRDDSKNSLYLQMNSLKTEDTAVYYCRYVHYGAYYGVDAWGQGTTVTVSS VL: DIVMTQSPLSLPVTPGEPASISCRSSQSLVHSNRNTYLHWYQQKPGQAPRLLIYKPSNRFSGVPDRFSGSGSGTDFTLKISRVEAEDVGVYYCGQGTQVPYTFGQGTKLEIK | 6
7 | CE115HA000/GLS3000 V94G (antibody, IgG1, name in Kabat numbering, V domains shown, one-arm IgG1) VH: QVQLVESGGGVVQPGRSLRLSCAASGFTFSNAWMHWVRQAPGKGLEWVAQIKAKSNNYATYYAESVKGRFTISRDDSKNSLYLQMNSLKTEDTAVYYCRYVHYGAYYGVDAWGQGTTVTVSS VL: DIVMTQSPLSLPVTPGEPASISCRSSQSLVHSNRNTYLHWYQQKPGQAPRLLIYKVSNRFSGVPDRFSGSGSGTDFTLKISRVEAEDVGVYYCGQGTQGPYTFGQGTKLEIK | 2.59
8 | CE115HA000/GLS3000 V94F (antibody, IgG1, name in Kabat numbering, V domains shown, one-arm IgG1) VH: QVQLVESGGGVVQPGRSLRLSCAASGFTFSNAWMHWVRQAPGKGLEWVAQIKAKSNNYATYYAESVKGRFTISRDDSKNSLYLQMNSLKTEDTAVYYCRYVHYGAYYGVDAWGQGTTVTVSS VL: DIVMTQSPLSLPVTPGEPASISCRSSQSLVHSNRNTYLHWYQQKPGQAPRLLIYKVSNRFSGVPDRFSGSGSGTDFTLKISRVEAEDVGVYYCGQGTQFPYTFGQGTKLEIK | 1.75
9 | CE115HA000/GLS3000 V94I (antibody, IgG1, name in Kabat numbering, V domains shown, one-arm IgG1) VH: QVQLVESGGGVVQPGRSLRLSCAASGFTFSNAWMHWVRQAPGKGLEWVAQIKAKSNNYATYYAESVKGRFTISRDDSKNSLYLQMNSLKTEDTAVYYCRYVHYGAYYGVDAWGQGTTVTVSS VL: DIVMTQSPLSLPVTPGEPASISCRSSQSLVHSNRNTYLHWYQQKPGQAPRLLIYKVSNRFSGVPDRFSGSGSGTDFTLKISRVEAEDVGVYYCGQGTQIPYTFGQGTKLEIK | 1.46
10 | CE115HA000/GLS3000 V27cY (antibody, IgG1, name in Kabat numbering, V domains shown, one-arm IgG1) VH: QVQLVESGGGVVQPGRSLRLSCAASGFTFSNAWMHWVRQAPGKGLEWVAQIKAKSNNYATYYAESVKGRFTISRDDSKNSLYLQMNSLKTEDTAVYYCRYVHYGAYYGVDAWGQGTTVTVSS VL: DIVMTQSPLSLPVTPGEPASISCRSSQSLYHSNRNTYLHWYQQKPGQAPRLLIYKVSNRFSGVPDRFSGSGSGTDFTLKISRVEAEDVGVYYCGQGTQVPYTFGQGTKLEIK | 1.25
11 | CE115HA000/GLS3000 V94Q (antibody, IgG1, name in Kabat numbering, V domains shown, one-arm IgG1) VH: QVQLVESGGGVVQPGRSLRLSCAASGFTFSNAWMHWVRQAPGKGLEWVAQIKAKSNNYATYYAESVKGRFTISRDDSKNSLYLQMNSLKTEDTAVYYCRYVHYGAYYGVDAWGQGTTVTVSS VL: DIVMTQSPLSLPVTPGEPASISCRSSQSLVHSNRNTYLHWYQQKPGQAPRLLIYKVSNRFSGVPDRFSGSGSGTDFTLKISRVEAEDVGVYYCGQGTQQPYTFGQGTKLEIK | 1.1
12 | CE115HA000/GLS3000 V51E (antibody, IgG1, name in Kabat numbering, V domains shown, one-arm IgG1) VH: QVQLVESGGGVVQPGRSLRLSCAASGFTFSNAWMHWVRQAPGKGLEWVAQIKAKSNNYATYYAESVKGRFTISRDDSKNSLYLQMNSLKTEDTAVYYCRYVHYGAYYGVDAWGQGTTVTVSS VL: DIVMTQSPLSLPVTPGEPASISCRSSQSLVHSNRNTYLHWYQQKPGQAPRLLIYKESNRFSGVPDRFSGSGSGTDFTLKISRVEAEDVGVYYCGQGTQVPYTFGQGTKLEIK | 0.88
13 | CE115HA000/GLS3000 V94H (antibody, IgG1, name in Kabat numbering, V domains shown, one-arm IgG1) VH: QVQLVESGGGVVQPGRSLRLSCAASGFTFSNAWMHWVRQAPGKGLEWVAQIKAKSNNYATYYAESVKGRFTISRDDSKNSLYLQMNSLKTEDTAVYYCRYVHYGAYYGVDAWGQGTTVTVSS VL: DIVMTQSPLSLPVTPGEPASISCRSSQSLVHSNRNTYLHWYQQKPGQAPRLLIYKVSNRFSGVPDRFSGSGSGTDFTLKISRVEAEDVGVYYCGQGTQHPYTFGQGTKLEIK | 1.16
14 | CE115HA000/GLS3000 V51D (antibody, IgG1, name in Kabat numbering, V domains shown, one-arm IgG1) VH: QVQLVESGGGVVQPGRSLRLSCAASGFTFSNAWMHWVRQAPGKGLEWVAQIKAKSNNYATYYAESVKGRFTISRDDSKNSLYLQMNSLKTEDTAVYYCRYVHYGAYYGVDAWGQGTTVTVSS VL: DIVMTQSPLSLPVTPGEPASISCRSSQSLVHSNRNTYLHWYQQKPGQAPRLLIYKDSNRFSGVPDRFSGSGSGTDFTLKISRVEAEDVGVYYCGQGTQVPYTFGQGTKLEIK | 1.5
15 | CE115HA000/GLS3000 V94K (antibody, IgG1, name in Kabat numbering, V domains shown, one-arm IgG1) VH: QVQLVESGGGVVQPGRSLRLSCAASGFTFSNAWMHWVRQAPGKGLEWVAQIKAKSNNYATYYAESVKGRFTISRDDSKNSLYLQMNSLKTEDTAVYYCRYVHYGAYYGVDAWGQGTTVTVSS VL: DIVMTQSPLSLPVTPGEPASISCRSSQSLVHSNRNTYLHWYQQKPGQAPRLLIYKVSNRFSGVPDRFSGSGSGTDFTLKISRVEAEDVGVYYCGQGTQKPYTFGQGTKLEIK | 0.91
16 | CE115HA000/GLS3000 V94R (antibody, IgG1, name in Kabat numbering, V domains shown, one-arm IgG1) VH: QVQLVESGGGVVQPGRSLRLSCAASGFTFSNAWMHWVRQAPGKGLEWVAQIKAKSNNYATYYAESVKGRFTISRDDSKNSLYLQMNSLKTEDTAVYYCRYVHYGAYYGVDAWGQGTTVTVSS VL: DIVMTQSPLSLPVTPGEPASISCRSSQSLVHSNRNTYLHWYQQKPGQAPRLLIYKVSNRFSGVPDRFSGSGSGTDFTLKISRVEAEDVGVYYCGQGTQRPYTFGQGTKLEIK | 1.11
17 | CE115HA000/GLS3000 V94E (antibody, IgG1, name in Kabat numbering, V domains shown, one-arm IgG1) VH: QVQLVESGGGVVQPGRSLRLSCAASGFTFSNAWMHWVRQAPGKGLEWVAQIKAKSNNYATYYAESVKGRFTISRDDSKNSLYLQMNSLKTEDTAVYYCRYVHYGAYYGVDAWGQGTTVTVSS VL: DIVMTQSPLSLPVTPGEPASISCRSSQSLVHSNRNTYLHWYQQKPGQAPRLLIYKVSNRFSGVPDRFSGSGSGTDFTLKISRVEAEDVGVYYCGQGTQEPYTFGQGTKLEIK | 1.18
18 | CE115HA000/GLS3000 V94A (antibody, IgG1, name in Kabat numbering, V domains shown, one-arm IgG1) VH: QVQLVESGGGVVQPGRSLRLSCAASGFTFSNAWMHWVRQAPGKGLEWVAQIKAKSNNYATYYAESVKGRFTISRDDSKNSLYLQMNSLKTEDTAVYYCRYVHYGAYYGVDAWGQGTTVTVSS VL: DIVMTQSPLSLPVTPGEPASISCRSSQSLVHSNRNTYLHWYQQKPGQAPRLLIYKVSNRFSGVPDRFSGSGSGTDFTLKISRVEAEDVGVYYCGQGTQAPYTFGQGTKLEIK | 1.05
19 | CE115HA000/GLS3000 V94L (antibody, IgG1, name in Kabat numbering, V domains shown, one-arm IgG1) VH: QVQLVESGGGVVQPGRSLRLSCAASGFTFSNAWMHWVRQAPGKGLEWVAQIKAKSNNYATYYAESVKGRFTISRDDSKNSLYLQMNSLKTEDTAVYYCRYVHYGAYYGVDAWGQGTTVTVSS VL: DIVMTQSPLSLPVTPGEPASISCRSSQSLVHSNRNTYLHWYQQKPGQAPRLLIYKVSNRFSGVPDRFSGSGSGTDFTLKISRVEAEDVGVYYCGQGTQLPYTFGQGTKLEIK | 3.06
20 | CE115HA000/GLS3000 V51G (antibody, IgG1, name in Kabat numbering, V domains shown, one-arm IgG1) VH: QVQLVESGGGVVQPGRSLRLSCAASGFTFSNAWMHWVRQAPGKGLEWVAQIKAKSNNYATYYAESVKGRFTISRDDSKNSLYLQMNSLKTEDTAVYYCRYVHYGAYYGVDAWGQGTTVTVSS VL: DIVMTQSPLSLPVTPGEPASISCRSSQSLVHSNRNTYLHWYQQKPGQAPRLLIYKGSNRFSGVPDRFSGSGSGTDFTLKISRVEAEDVGVYYCGQGTQVPYTFGQGTKLEIK | 0.83
21 | CE115HA000/GLS3000 V94N (antibody, IgG1, name in Kabat numbering, V domains shown, one-arm IgG1) VH: QVQLVESGGGVVQPGRSLRLSCAASGFTFSNAWMHWVRQAPGKGLEWVAQIKAKSNNYATYYAESVKGRFTISRDDSKNSLYLQMNSLKTEDTAVYYCRYVHYGAYYGVDAWGQGTTVTVSS VL: DIVMTQSPLSLPVTPGEPASISCRSSQSLVHSNRNTYLHWYQQKPGQAPRLLIYKVSNRFSGVPDRFSGSGSGTDFTLKISRVEAEDVGVYYCGQGTQNPYTFGQGTKLEIK | 0.96
